The text below walks through data of publication PMC5401885, “Isoprenoid Pyrophosphate-Dependent Transcriptional Regulation of Carotenogenesis in Corynebacterium glutamicum” (Frontiers in Microbiology, 2017).

The target of data set [1] is T1, CrtR (His-tagged) (Corynebacterium glutamicum ATCC 13032) (UniProt Q8NSP1).
T1 sequence: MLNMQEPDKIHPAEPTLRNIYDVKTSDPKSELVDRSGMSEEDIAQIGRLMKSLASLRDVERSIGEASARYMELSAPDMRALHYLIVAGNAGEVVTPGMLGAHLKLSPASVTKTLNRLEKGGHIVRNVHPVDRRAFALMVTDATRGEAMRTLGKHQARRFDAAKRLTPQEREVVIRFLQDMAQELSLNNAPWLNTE
Put plainly: EMSA. The following applies: 50 mM Tris-HCl pH 7.5, 10% glycerol, 50 mM KCl, 10 mM MgCl2, 0.5 mM EDTA, 20 uL, 90 ng DNA, 30 min at room temperature; 6% DNA retardation gel. Background: A gel shift assay detects complexes by their altered migration in electrophoresis.

The target of data set [2] is T2, CrtR (CrtRHis6, His-tagged CrtR) (Corynebacterium glutamicum, UniProt Q8NSP1).
T2 construct: gene Cgl0627; full length, 195 aa; N-terminal His-tag (pET16b, decahistidine) kept; expressed in E. coli BL21(DE3); Ni-NTA purified; cloning primers give N-terminus MLNMQE and C-terminus WLNTE
T2 sequence (Q8NSP1 1-195): T1 sequence
Put plainly: EMSA, loss of CrtR binding to crtE-crtR intergenic DNA. The following applies: 30-fold molar excess CrtR over DNA; 15 min pre-incubation, room temperature; 50 mM Tris-HCl pH 7.5, 50 mM KCl, 10 mM MgCl2.

The target of data set [3] is T2, CrtR (CrtRHis6, His-tagged CrtR). Described as above. The following applies: 30-fold molar excess CrtR over DNA; 15 min pre-incubation, room temperature; 50 mM Tris-HCl pH 7.5, 50 mM KCl, 10 mM MgCl2. This is another data set of the same source.

As to “GTTCGCTACGTCCGAGTGATCACCTACAAGGACGTCAACATCGAAGAATTAGATAAGCCTGACATCATCATGCCTGAG (double strand) [cg2228 upstream fragment]”, the binding entry in data set [1] was “no binding”.
Consider “AACTCATGGGATACTATAAATTTCTTGTAGGCACATTATTTTTATGGACCCAAATTCACACTTTCTGTACTTCATCAAAATAAAGCGCCATATACAACGATTGGGAATTTTTGCGAGATAACTGGCCGTGTGATACTCGA (double strand) [fragment B]”, for which, in data set [1], the binding result is reported as “no binding”.
The same measure, in the same setting: in the case of “CACCAATACTACGTTCCACATCGCGAAGACTGGCCAACGATTTCATTAGCCGCCCAATTTGCGCAATGTCTTCTTCCGACATGCCAGAACGATCAACTAATTCACTTTTGGGATCACTAGTTTTAACGTCATAAATATTACGAAGTGTAGGTTCTGCCGGATGGATTTTATCTGGTTCCTGCATATTCAGCATAGTAATCACCTTTTTCTACAAAGTCAGATAAAGTTTATTTTT (double strand) [fragment G]” it was “no binding”; in that of “CATAAAAATAATGTGCCTACAAGAAATTTATAGTATCCCATGAGTTAATATTTTTAAAAATAAACTTTATCTGACTTTGTAGAAAAAGGTGATTACTATGCTGAATATGCAGGAACCAGATAAAATCCATCCGGCAGAACCTACACTTCGTAATATTTATGACGTTAAAACTAGTGATCCCAAAAGTGAATTAGTTGATCGTTCTGGCATGTCGGAAGAAGACATTGCGCAAATTGGGCGGCTAATGAAATCGTTGGCCAGTCTTCGCGATGTGGAACGTAGTATTGGTG (double strand) [fragment D]”, “binds”.
Regarding `C=C(C)CCOP(=O)(O)OP(=O)(O)O` [IPP, isopentenyl pyrophosphate], the “EMSA, loss of CrtR binding to crtE-crtR intergenic DNA” value (from here on “EMSA, loss of CrtR binding”) in data set [2] is “FPP, GPP, IPP and DMAPP exerted similar effects on CrtR binding in vitro”.
As for “AAAAATATTAACTCATGGGATACTATAAATTTCTTGTAGGCACATTATTTTTATGGACCCAAATTCACACTTTCTGTACTTCATCAAAATAAAGCGCCATATACAACGATTGGGAATTTTTGCGAGATAACTGGCCGTGTGATACTCGA (double strand) [fragment C]”, the binding entry in data set [1] is listed as “binds”.
As to `CC(C)=CCC/C(C)=C/CC/C(C)=C/CC/C(C)=C/COP(=O)(O)OP(=O)(O)O` [GGPP], the lowest effective concentration in data set [3] stood at 50 µM.
As to “AAAAATATTAACTCATGGGATACTATCCCGGGCTTGTAGGCACATTATTTTTATGGACCCAAATTCACACTTTCTGTACTTCATCAAAATAAAGCGCCATATACAACGATTGGGAATTTTTGCGAGATAACTGGCCGTGTGATACTCGA (double strand) [fragment H (motif 2 AAATTT to CCCGGG)]”, in data set [1], the binding entry was “binds”.
Same read-out and setting: in the case of “CACCAATACTACGTTCCACATCGCGAAGACTGGCCAACGATTTCATTAGCCGCCCAATTTGCGCAATGTCTTCTTCCGACATGCCAGAACGATCAACTAATTCACTTTTGGGATCACTAGTTTTAACGTCATAAATATTACGAAGTGTAGGTTCTGCCGGATGGATTTTATCTGGTTCCTGCATATTCAGCATAGTAATCACCTTTTTCTACAAAGTCAGATAAAGTTTATTTTTAAAAATATTAACTCATGGG (double strand) [fragment F]” it was “binds”; in that of “TCGAGTATCACACGGCCAGTTATCTCGCAAAAATTCCCAATCGTTGTATATGGCGCTTTATTTTGATGAAGTACAGAAAGTGTGAATTTGGGTCCATAAAAATAATGTGCCTACAAGCCCGGGATAGTATCCCATGAGGGCCTATTTTT (double strand)”, “no binding”.
In the case of `CC(C)=CCC/C(C)=C/COP(=O)(O)OP(=O)(O)O` [GPP, geranyl pyrophosphate], the “EMSA, loss of CrtR binding” value in data set [2] was “FPP, GPP, IPP and DMAPP exerted similar effects on CrtR binding in vitro”.
Take `CC(C)=CCC/C(C)=C/CC/C(C)=C/COP(=O)(O)OP(=O)(O)O` [FPP, farnesyl pyrophosphate]: the “EMSA, loss of CrtR binding” value in data set [2] is “farnesyl pyrophosphate (FPP) and GGPP perturbed binding of His-tagged CrtR to the intergenic region”.
Regarding `CC(C)=CCOP(=O)(O)OP(=O)(O)O` [DMAPP, dimethylallyl pyrophosphate], the “EMSA, loss of CrtR binding” value in data set [2] was “FPP, GPP, IPP and DMAPP exerted similar effects on CrtR binding in vitro”.
Take “ATTCAGCATAGTAATCACCTTTTTCTACAAAGTCAGATAAAGTTTATTTTTAAAAATATTAACTCATGGGATACTATAAATTTCTTGTAGGCACATTATTTTTATGGACCCAAATTCACACTTTCTGTACTTCATCAAAATAAAGCGCCATATACAACGATTGGGAATTTTTGCGAGATAACTGGCCGTGTGATACTCGA (double strand) [fragment A (full crtE-crtR intergenic region)]”: the binding entry in data set [1] was “binds”.
Take “CACCAATACTACGTTCCACATCGCGAAGACTGGCCAACGATTTCATTAGCCGCCCAATTTGCGCAATGTCTTCTTCCGACATGCCAGAACGATCAACTAATTCACTTTTGGGATCACTAGTTTTAACGTCATAAATATTACGAAGTGTAGGTTCTGCCGGATGGATTTTATCTGGTTCCTGCATATTCAGCATAGTAATCACCTTTTTCTACAAAGTCAGATAAAGTTTATTTTTAAAAATATTAACTCATGGGATACTATAAATTTCTTGTAGGC (double strand) [fragment E]”: the binding result in data set [1] was “binds”.
For “AAAAATAGGCCCTCATGGGATACTATAAATTTCTTGTAGGCACATTATTTTTATGGACCCAAATTCACACTTTCTGTACTTCATCAAAATAAAGCGCCATATACAACGATTGGGAATTTTTGCGAGATAACTGGCCGTGTGATACTCGA (double strand) [fragment I (motif 1 TTAA to GGCC)]”, the binding entry in data set [1] is recorded as “no binding”.
